Test results as given in patent US20260070987A1.
Changes are numbered by the printed parent chain. Numbers in names are those of the source.

B1: equine IgG7 N434C mutant (antibody, part only; not given: variable domains, not shown: another chain or arm of the molecule)
constant: ASTTAPKVFPLASHSAATSGSTVALGCLVSSYFPEPVTVSWNSGALTSGVHTFPSVLQSSGLYSLSSMVTVPASSLKSQTYICNVAHPASSTKVDKKIVIKECGGCPTCPECLSVGPSVFIFPPKPKDVLMISRTPTVTCVVVDVGHDFPDVQFNWYVDGVETHTATTEPKQEQNNSTYRVVSILAIQHKDWLSGKEFKCKVNNQALPAPVQKTISKPTGQPREPQVYVLAPHRDELSKNKVSVTCLVKDFYPTDIDIEWKSNGQPEPETKYSTTPAQLDSDGSYFLYSKLTVETNRWQQGTTFTCAVMHEALHCHYTEKSVSKSPGK
B2: equine IgG7 N434D mutant (antibody, part only; not given: variable domains, not shown: another chain or arm of the molecule)
constant: B1 constant with C315D
B3: equine IgG7 N434E mutant (antibody, part only; not given: variable domains, not shown: another chain or arm of the molecule)
constant: B1 constant with C315E
B4: equine IgG7 N434F mutant (antibody, part only; not given: Variable domains, not shown: another chain or arm of the molecule; small tags and cut ends)
constant: B1 constant with C315F
B5: equine IgG7 N434G mutant (antibody, part only; not given: variable domains, not shown: another chain or arm of the molecule; small tags and cut ends)
constant: B1 constant with C315G
B6: equine IgG7 N434H mutant (antibody, part only; not given: Variable domains, not shown: another chain or arm of the molecule; small tags and cut ends)
constant: B1 constant with C315H
B7: equine IgG7 N434K mutant (antibody, part only; not given: variable domains, not shown: another chain or arm of the molecule; small tags and cut ends)
constant: B1 constant with C315K
B8: equine IgG7 N434P mutant (antibody, part only; not given: Variable domains, not shown: another chain or arm of the molecule)
constant: B1 constant with C315P
B9: equine IgG7 N434R mutant (antibody, part only; not given: Variable domains, not shown: another chain or arm of the molecule)
constant: B1 constant with C315R
B10: equine IgG7 N434S mutant (antibody, part only; not given: variable domains, not shown: another chain or arm of the molecule)
constant: B1 constant with C315S
B11: equine IgG7 N434T mutant (antibody, part only; not given: variable domains, not shown: another chain or arm of the molecule)
constant: B1 constant with C315T
B12: equine IgG7 N434V mutant (antibody, part only; not given: Variable domains, not shown: another chain or arm of the molecule)
constant: B1 constant with C315V
B13: equine IgG7 N434W mutant (antibody, part only; not given: variable domains, not shown: another chain or arm of the molecule)
constant: B1 constant with C315W
B14: equine IgG7 N434Y mutant (antibody, part only; not given: Variable domains, not shown: another chain or arm of the molecule)
constant: B1 constant with C315Y
B15: equine IgG7 D312A mutant (antibody, part only; not given: Variable domains, not shown: another chain or arm of the molecule)
constant: B1 constant with D191A, C315N
B16: equine IgG7 D312C mutant (antibody, part only; not given: variable domains, not shown: another chain or arm of the molecule)
constant: B1 constant with D191C, C315N
B17: equine IgG7 D312E mutant (antibody, part only; not given: variable domains, not shown: another chain or arm of the molecule)
constant: B1 constant with D191E, C315N
B18: equine IgG7 D312F mutant (antibody, part only; not given: Variable domains, not shown: another chain or arm of the molecule)
constant: B1 constant with D191F, C315N
B19: equine IgG7 D312G mutant (antibody, part only; not given: Variable domains, not shown: another chain or arm of the molecule)
constant: B1 constant with D191G, C315N
B20: equine IgG7 D312H mutant (antibody, part only; not given: variable domains, not shown: another chain or arm of the molecule)
constant: B1 constant with D191H, C315N
B21: equine IgG7 D312I mutant (antibody, part only; not given: variable domains, not shown: another chain or arm of the molecule)
constant: B1 constant with D191I, C315N
B22: equine IgG7 D312K mutant (antibody, part only; not given: variable domains, not shown: another chain or arm of the molecule)
constant: B1 constant with D191K, C315N
B23: equine IgG7 D312L mutant (antibody, part only; not given: variable domains, not shown: another chain or arm of the molecule)
constant: B1 constant with D191L, C315N

Biological target: equine FcRn (large alpha subunit p51) in complex with equine beta-2-microglobulin (equine) (UniProt F6XZ61)
Sequence of UniProt F6XZ61 (F6XZ61 entry or part of it, one chain of several): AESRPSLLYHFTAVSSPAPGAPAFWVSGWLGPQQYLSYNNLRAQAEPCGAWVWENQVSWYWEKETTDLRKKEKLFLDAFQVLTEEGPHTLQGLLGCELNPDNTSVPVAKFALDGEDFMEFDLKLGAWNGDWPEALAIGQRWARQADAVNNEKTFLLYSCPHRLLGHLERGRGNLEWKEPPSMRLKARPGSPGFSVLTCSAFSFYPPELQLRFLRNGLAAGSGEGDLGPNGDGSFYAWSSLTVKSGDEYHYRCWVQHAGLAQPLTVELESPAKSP
Assay: SPR (Biacore), pH 6

Kd	Binder
2.5 nM	B1
1.1 nM	B2
6.1 nM	B3
7.4 nM	B4
7400 nM	B5
25.3 nM	B6
31.7 nM	B7
194 nM	B8
273 nM	B9
114 nM	B10
159 nM	B11
6700 nM	B12
1.3 nM	B13
3.7 nM	B14
17.6 nM	B15
26.5 nM	B16
42.5 nM	B17
8.6 nM	B18
38.4 nM	B19
10.4 nM	B20
15.2 nM	B21
16.4 nM	B22
5.7 nM	B23
